We go through 57 variants from the RNAGym collection of RNA variant scans (doi:10.7554/elife.80360).

The chains are these.
B1: Hammerhead Ribozyme (parent)
chain: ACCGGAUGUGCUUUCCGGUCUGAUGAGUCCGUGAGGACGAAACAG

In the data set the parent is B1. As to the kind of experiment: self-cleavage, relative activity (ratio to wild type); higher = more cleavage; co-transcriptional.
In the case of ACAGGAUGUGCUUUCCGGUCUGAUGAGUCGGUGAGGACGAAACAG [C3A C30G], the self-cleavage was found to be 0.426.
As for ACAGGAUGUGCUUUCCGGUCUGAUGAGUACGUGAGGACGAAACAG [C3A C29A], the self-cleavage was 0.406.
ACAGGAUGUGCUUUCCGGUCUGAUGAGUUCGUGAGGACGAAACAG [C3A C29U]: the self-cleavage came out at 0.534.
As to ACAGGAUGUGCUUUCCGGUCUGAUGAGUGCGUGAGGACGAAACAG [C3A C29G], the self-cleavage was found to be 0.397.
With ACAGGAUGUGCUUUCCGGUCUGAUGAGUCCGUGCGGACGAAACAG [C3A A34C], the self-cleavage was 0.359.
Regarding ACAGGAUGUGCUUUCCGGUCUGAUGAGUCCGUGGGGACGAAACAG [C3A A34G], the self-cleavage is 0.515.
Turning to ACAGGAUGUGCUUUCCGGUCUGAUGAGUCCGUGUGGACGAAACAG [C3A A34U], the self-cleavage was found to be 0.358.
As to ACAGGCUGUGCUUUCCGGUCUGAUGAGUCCGUGAGGACGAAACAG [C3A A6C], the self-cleavage stood at 0.335.
As for ACAGGUUGUGCUUUCCGGUCUGAUGAGUCCGUGAGGACGAAACAG [C3A A6U], the self-cleavage turned out to be 0.371.
For ACAGGGUGUGCUUUCCGGUCUGAUGAGUCCGUGAGGACGAAACAG [C3A A6G], the self-cleavage came out at 0.366.
For ACAGGAUGUGCUUGCCGGUCUGAUGAGUCCGUGAGGACGAAACAG [C3A U14G] the value was 0.672.
Turning to ACAGGAUGUGCUUCCCGGUCUGAUGAGUCCGUGAGGACGAAACAG [C3A U14C], the self-cleavage stood at 0.436.
Under ACAGGAUGUGCUUACCGGUCUGAUGAGUCCGUGAGGACGAAACAG [C3A U14A] stands 0.422; under ACAGGAUGUGCUUUCCGGACUGAUGAGUCCGUGAGGACGAAACAG [C3A U19A], 0.316; under ACAGGAUGUGCUUUCCGGUCUGAUUAGUCCGUGAGGACGAAACAG [C3A G25U], 0.282.
For ACAGGAUGUGCUUUCCGGUCUGAUCAGUCCGUGAGGACGAAACAG [C3A G25C], the self-cleavage worked out at 0.344.
Under ACAGGAUGUGCUUUCCGGUCUGAUAAGUCCGUGAGGACGAAACAG [C3A G25A] stands 0.298; under ACAGGACGUGCUUUCCGGUCUGAUGAGUCCGUGAGGACGAAACAG [C3A U7C], 0.386; under ACAGGAAGUGCUUUCCGGUCUGAUGAGUCCGUGAGGACGAAACAG [C3A U7A], 0.687.
Turning to ACAGGAGGUGCUUUCCGGUCUGAUGAGUCCGUGAGGACGAAACAG [C3A U7G], the self-cleavage stood at 0.7.
For ACACGAUGUGCUUUCCGGUCUGAUGAGUCCGUGAGGACGAAACAG [C3A G4C], the self-cleavage was 0.216.
On to ACAUGAUGUGCUUUCCGGUCUGAUGAGUCCGUGAGGACGAAACAG [C3A G4U], for which the self-cleavage turned out to be 0.282.
Under ACAAGAUGUGCUUUCCGGUCUGAUGAGUCCGUGAGGACGAAACAG [C3A G4A] stands 0.293.
For ACAGGAUGUGCUUUCCGGUCUGAUGAGUCCGUGAGGACGGAACAG [C3A A40G] the value was 0.353; for ACAGGAUGUGCUUUCCGGUCUGAUGAGUCCGUGAGGACGCAACAG [C3A A40C], 0.324; for ACAGGAUGUGCUUUCCGGUCUGAUGAGUCCGUGAGGACGUAACAG [C3A A40U], 0.278.
As to ACAGGAUGUGCUUUCCGGUCUGAUGAGUCCGUGAGGACGAACCAG [C3A A42C], the self-cleavage turned out to be 0.313.
For ACAGGAUGUGCUUUCCGGUCUGAUGAGUCCGUGAGGACGAAUCAG [C3A A42U] the value was 0.356.
As for ACAGGAUGUGCUUUCCGGUCUGAUGAGUCCGUGAGGACGAAGCAG [C3A A42G], the self-cleavage stood at 0.279.
Under ACAGGAUGUGAUUUCCGGUCUGAUGAGUCCGUGAGGACGAAACAG [C3A C11A] stands 0.754; under ACAGGAUGUGUUUUCCGGUCUGAUGAGUCCGUGAGGACGAAACAG [C3A C11U], 0.358.
Take ACAGGAUGUGGUUUCCGGUCUGAUGAGUCCGUGAGGACGAAACAG [C3A C11G]: the self-cleavage was 0.562.
Turning to ACAGGAUUUGCUUUCCGGUCUGAUGAGUCCGUGAGGACGAAACAG [C3A G8U], the self-cleavage was 0.902.
Consider ACAGGAUAUGCUUUCCGGUCUGAUGAGUCCGUGAGGACGAAACAG [C3A G8A], for which the self-cleavage was determined as 0.629.
Under ACAGGAUCUGCUUUCCGGUCUGAUGAGUCCGUGAGGACGAAACAG [C3A G8C] stands 0.467.
For ACAGGAUGUGCUUUCCGGUUUGAUGAGUCCGUGAGGACGAAACAG [C3A C20U], the self-cleavage came out at 0.319.
For ACAGGAUGUGCUUUCCGGUAUGAUGAGUCCGUGAGGACGAAACAG [C3A C20A] the value was 0.348.
Under ACAGGAUGUGCUUUCCGGUGUGAUGAGUCCGUGAGGACGAAACAG [C3A C20G] stands 0.254.
ACAGGAUGUGCUUUCCGGUCUGAUGAGUCCGUGAGGACGAAACAG [C3A]: the self-cleavage was 0.772.
In the case of ACAGGAUGUGCUUUCCGGUCUGAUGGGUCCGUGAGGACGAAACAG [C3A A26G], the self-cleavage was 0.253.
On to ACAGGAUGUGCUUUCCGGUCUGAUGUGUCCGUGAGGACGAAACAG [C3A A26U], for which the self-cleavage was found to be 0.399.
ACAGGAUGUGCUUUCCGGUCUGAUGCGUCCGUGAGGACGAAACAG [C3A A26C]: the self-cleavage stood at 0.292.
As for ACAGGAUGUGCUUUCCGGUCUGAUGAUUCCGUGAGGACGAAACAG [C3A G27U], the self-cleavage turned out to be 0.305.
On to ACAGGAUGUGCUUUCCGGUCUGAUGACUCCGUGAGGACGAAACAG [C3A G27C], for which the self-cleavage came to 0.422.
In the case of ACAGGAUGUGCUUUCCGGUCUGAUGAAUCCGUGAGGACGAAACAG [C3A G27A], the self-cleavage amounted to 0.365.
Turning to ACAGGAUGUGCUUUCCGGUCUGAUGAGUCCGUGAGGACGAAACAA [C3A G45A], the self-cleavage turned out to be 0.358.
Under ACAGGAUGUGCUUUCCGGUCUGAUGAGUCCGUGAGGACGAAACAU [C3A G45U] stands 0.448.
In the case of ACAGGAUGUGCUUUCCGGUCUGAUGAGUCCGUGAGGACGAAACAC [C3A G45C], the self-cleavage is 0.355.
Regarding ACAGGAUGUGCUUUCCGGUCUCAUGAGUCCGUGAGGACGAAACAG [C3A G22C], the self-cleavage was found to be 0.285.
Take ACAGGAUGUGCUUUCCGGUCUAAUGAGUCCGUGAGGACGAAACAG [C3A G22A]: the self-cleavage turned out to be 0.308.
For the variant ACAGGAUGUGCUUUCCGGUCUUAUGAGUCCGUGAGGACGAAACAG [C3A G22U], the self-cleavage was 0.291.
On to ACAGAAUGUGCUUUCCGGUCUGAUGAGUCCGUGAGGACGAAACAG [C3A G5A], for which the self-cleavage was determined as 0.319.
Take ACAGCAUGUGCUUUCCGGUCUGAUGAGUCCGUGAGGACGAAACAG [C3A G5C]: the self-cleavage worked out at 0.319.
Under ACAGUAUGUGCUUUCCGGUCUGAUGAGUCCGUGAGGACGAAACAG [C3A G5U] stands 0.28; under ACAGGAUGUGCUUUCCGGUCUGAUGAGUCCGUGAGGACGAAACCG [C3A A44C], 0.418; under ACAGGAUGUGCUUUCCGGUCUGAUGAGUCCGUGAGGACGAAACUG [C3A A44U], 0.392.
For ACAGGAUGUGCUUUCCGGUCUGAUGAGUCCGUGAGGACGAAACGG [C3A A44G] the value was 1.01.
